Data on 9 molecules can be found in PMC11194062, “The clade-specific target recognition mechanisms of plant RISCs”.

Series [1] has as its target T1, AGO4 D660A (Arabidopsis thaliana, UniProt Q9ZVD5 1-924, D660A).
T1 sequence: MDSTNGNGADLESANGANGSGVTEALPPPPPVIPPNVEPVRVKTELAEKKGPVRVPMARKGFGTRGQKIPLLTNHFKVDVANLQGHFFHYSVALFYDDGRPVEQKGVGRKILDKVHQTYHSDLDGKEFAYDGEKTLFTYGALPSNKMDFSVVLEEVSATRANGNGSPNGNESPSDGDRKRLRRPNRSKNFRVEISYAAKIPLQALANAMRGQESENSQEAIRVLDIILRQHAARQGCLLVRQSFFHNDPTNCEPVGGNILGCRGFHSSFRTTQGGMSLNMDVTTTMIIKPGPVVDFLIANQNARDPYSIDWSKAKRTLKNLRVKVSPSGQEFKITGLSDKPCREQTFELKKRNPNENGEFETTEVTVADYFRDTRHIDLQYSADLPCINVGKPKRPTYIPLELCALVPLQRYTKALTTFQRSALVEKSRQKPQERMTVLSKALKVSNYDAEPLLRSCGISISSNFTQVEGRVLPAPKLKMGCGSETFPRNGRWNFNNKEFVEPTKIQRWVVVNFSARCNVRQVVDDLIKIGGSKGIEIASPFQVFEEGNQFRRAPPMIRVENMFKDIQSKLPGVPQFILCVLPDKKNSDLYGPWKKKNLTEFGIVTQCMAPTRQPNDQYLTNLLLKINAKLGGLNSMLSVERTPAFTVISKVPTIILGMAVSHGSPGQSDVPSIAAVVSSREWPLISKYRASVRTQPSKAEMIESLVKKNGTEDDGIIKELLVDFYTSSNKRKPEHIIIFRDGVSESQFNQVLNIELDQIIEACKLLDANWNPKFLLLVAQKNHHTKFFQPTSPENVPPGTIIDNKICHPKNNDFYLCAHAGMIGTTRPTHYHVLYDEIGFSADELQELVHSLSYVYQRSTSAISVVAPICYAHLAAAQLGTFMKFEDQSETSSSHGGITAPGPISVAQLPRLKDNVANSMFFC
Briefly: filter binding; 100 mM KOAc, 18 mM HEPES pH 7.4, 3 mM Mg(OAc)2, 5 mM DTT, 0.01% IGEPAL CA-630, 0.01 mg/ml yeast tRNA; 20 pM target; 25 C, 1 h. The following applies: protein: ivt, tags: N-terminal 3xFLAG-SUMO, removed by SUMOstar elution, label: target 3' 32P-cordycepin; for Kd: target 28 nt.

The target in a further series is T2, AGO9 D632A (Arabidopsis thaliana, UniProt Q84VQ0 1-896, D632A).
T2 sequence: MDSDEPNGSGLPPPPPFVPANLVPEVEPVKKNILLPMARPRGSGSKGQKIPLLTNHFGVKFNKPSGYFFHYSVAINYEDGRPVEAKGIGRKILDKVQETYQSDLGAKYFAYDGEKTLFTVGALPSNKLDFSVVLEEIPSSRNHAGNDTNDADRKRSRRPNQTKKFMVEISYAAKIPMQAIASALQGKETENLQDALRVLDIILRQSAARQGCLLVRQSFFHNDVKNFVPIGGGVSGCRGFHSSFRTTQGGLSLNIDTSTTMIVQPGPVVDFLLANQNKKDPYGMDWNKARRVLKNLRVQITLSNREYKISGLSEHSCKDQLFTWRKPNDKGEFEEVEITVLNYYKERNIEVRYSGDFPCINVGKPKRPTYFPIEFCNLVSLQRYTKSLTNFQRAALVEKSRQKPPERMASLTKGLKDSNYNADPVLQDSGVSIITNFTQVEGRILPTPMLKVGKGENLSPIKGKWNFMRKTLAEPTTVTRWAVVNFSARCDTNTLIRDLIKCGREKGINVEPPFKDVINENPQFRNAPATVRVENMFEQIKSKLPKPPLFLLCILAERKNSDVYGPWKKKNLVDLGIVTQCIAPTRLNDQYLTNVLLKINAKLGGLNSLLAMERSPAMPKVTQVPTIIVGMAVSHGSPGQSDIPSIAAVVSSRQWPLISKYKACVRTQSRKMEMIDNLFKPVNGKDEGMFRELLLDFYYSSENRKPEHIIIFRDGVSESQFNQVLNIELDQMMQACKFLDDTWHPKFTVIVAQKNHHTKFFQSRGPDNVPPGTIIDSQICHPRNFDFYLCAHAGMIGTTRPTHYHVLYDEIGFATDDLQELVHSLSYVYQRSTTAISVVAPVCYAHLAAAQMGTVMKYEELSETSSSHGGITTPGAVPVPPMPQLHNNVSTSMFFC
The description is as above. The following applies: protein: ivt; tags: N-terminal 3xFLAG-SUMO, removed by SUMOstar elution; label: target 3' 32P-cordycepin; target 28 nt.

The target in another series is T3, AGO6 D623A (Arabidopsis thaliana, UniProt O48771 1-878, D623A).
T3 sequence: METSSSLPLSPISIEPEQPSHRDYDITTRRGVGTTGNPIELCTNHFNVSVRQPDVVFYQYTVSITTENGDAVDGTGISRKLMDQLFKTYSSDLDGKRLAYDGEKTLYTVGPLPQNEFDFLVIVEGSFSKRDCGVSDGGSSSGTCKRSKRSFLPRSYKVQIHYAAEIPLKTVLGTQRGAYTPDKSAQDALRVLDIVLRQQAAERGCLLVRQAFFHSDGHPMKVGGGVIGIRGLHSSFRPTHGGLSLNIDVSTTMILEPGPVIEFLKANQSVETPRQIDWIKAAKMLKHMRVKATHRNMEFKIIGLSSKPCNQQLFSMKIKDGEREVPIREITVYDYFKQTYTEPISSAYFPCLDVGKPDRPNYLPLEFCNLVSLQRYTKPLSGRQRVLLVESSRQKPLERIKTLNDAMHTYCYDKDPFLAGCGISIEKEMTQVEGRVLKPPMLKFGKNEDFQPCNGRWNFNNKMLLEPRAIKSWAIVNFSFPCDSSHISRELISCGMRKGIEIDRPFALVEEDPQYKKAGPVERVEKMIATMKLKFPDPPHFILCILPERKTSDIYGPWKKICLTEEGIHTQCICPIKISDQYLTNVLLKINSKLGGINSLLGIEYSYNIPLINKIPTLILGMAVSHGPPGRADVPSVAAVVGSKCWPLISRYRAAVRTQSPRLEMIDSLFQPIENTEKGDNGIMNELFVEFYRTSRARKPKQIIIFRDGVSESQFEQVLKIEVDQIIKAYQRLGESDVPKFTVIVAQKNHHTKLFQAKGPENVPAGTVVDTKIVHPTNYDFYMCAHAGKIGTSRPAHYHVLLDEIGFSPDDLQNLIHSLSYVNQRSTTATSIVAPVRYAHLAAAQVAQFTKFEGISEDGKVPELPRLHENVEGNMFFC
Described as above. The conditions noted are these: protein: ivt; tags: N-terminal 3xFLAG-SUMO, removed by SUMOstar elution; label: target 3' 32P-cordycepin; target 28 nt.

Series [2] has as its target T1, AGO4 D660A. The series is described as above. The conditions noted are these: protein: ivt; tags: N-terminal 3xFLAG-SUMO, removed by SUMOstar elution; label: target 3' 32P-cordycepin; mismatch at g20-g21.
Series [3] deals with T1, AGO4 D660A. The experiment in a line: filter binding; did not bind at all; 100 mM KOAc, 18 mM HEPES pH 7.4, 3 mM Mg(OAc)2, 5 mM DTT, 0.01% IGEPAL CA-630, 0.01 mg/ml yeast tRNA; 20 pM target; 25 C, 1 h. The following applies: protein: ivt; tags: N-terminal 3xFLAG-SUMO, removed by SUMOstar elution; label: target 3' 32P-cordycepin; only g2-g8 paired.

As usually defined, the Kd is the constant that tells how readily two partners part at equilibrium. A higher Kd goes with lower affinity.

B1: 24-nt 5'A guide / mm20-21 DNA (DNA:RNA)
RNA: AGAGGUAGAUCCUUGUAUAGUCUC
DNA: ACGAGTGTATACAAGGATCTACCTCTCAA
modifications: guide 3' 2'-O-methyl
With B1, in the series with AGO4 D660A [1] (mismatch at g20-g21), the binding result is recorded as “binds”.

B2: 24-nt 5'A guide / t1T DNA (DNA:RNA)
RNA: AGAGGUAGAUCCUUGUAUAGUCUC
DNA: ACGAGACTATACAAGGATCTACCTCTCAA
modifications: guide 3' 2'-O-methyl
B2: the values for the Kd in the series with AGO9 D632A, in the series with AGO6 D623A and with AGO4 D660A [1] were 2.12 pM, 7.3 pM and 0.93 pM, respectively.

B3: 24-nt 5'A guide / mm20-21 RNA (dsRNA)
RNA 1: AGAGGUAGAUCCUUGUAUAGUCUC
RNA 2: ACGAGUGUAUACAAGGAUCUACCUCUCAA
modifications: guide 3' 2'-O-methyl
For B3, the binding signal with AGO4 D660A [2] is ~10 fold lower affinity than t1U.

B4: 24-nt 5'A guide / mm8-9 DNA (DNA:RNA)
RNA: AGAGGUAGAUCCUUGUAUAGUCUC
DNA: ACGAGACTATACAAGGAAGTACCTCTCAA
modifications: guide 3' 2'-O-methyl
For the molecule B4, the binding result with AGO4 D660A [1] (mismatch at g8-g9) is “binds”.

B5: 24-nt 5'A guide / seed-only (2-8) DNA (DNA:RNA)
RNA: AGAGGUAGAUCCUUGUAUAGUCUC
DNA: ACCTCTGATATGTTCCTACTACCTCTCAA
modifications: guide 3' 2'-O-methyl
B5: the binding result with AGO4 D660A [3] is “no binding”.

B6: 24-nt 5'A guide / t1U RNA (dsRNA)
RNA 1: AGAGGUAGAUCCUUGUAUAGUCUC
RNA 2: ACGAGACUAUACAAGGAUCUACCUCUCAA
modifications: guide 3' 2'-O-methyl
For B6, the Kd with AGO9 D632A stood at 12.7 pM; with AGO6 D623A, 50.4 pM; in the series with AGO4 D660A [1], 1.71 pM.

B7: 24-nt 5'A guide / seed-only (2-8) RNA (dsRNA)
RNA 1: AGAGGUAGAUCCUUGUAUAGUCUC
RNA 2: ACCUCUGAUAUGUUCCUACUACCUCUCAA
modifications: guide 3' 2'-O-methyl
With B7, the binding result in the series with AGO4 D660A [3] is “no binding”.

B8: 24-nt 5'A guide / mm23-24 DNA (DNA:RNA)
RNA: AGAGGUAGAUCCUUGUAUAGUCUC
DNA: ACCTGACTATACAAGGATCTACCTCTCAA
modifications: guide 3' 2'-O-methyl
For B8, the binding result with AGO4 D660A [1] (mismatch at g23-g24) is reported as “binds”.

B9: 24-nt 5'A guide / mm6-7 DNA (DNA:RNA)
RNA: AGAGGUAGAUCCUUGUAUAGUCUC
DNA: ACGAGACTATACAAGGATCATCCTCTCAA
modifications: guide 3' 2'-O-methyl
As for B9, the binding result with AGO4 D660A [1] (mismatch at g6-g7) is on record as “binds”.
